assay: yeast display, Sf9 membrane polyspecificity reagent, FACS + sequencing; frameworks hold sequencing errors
Summary of the method: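 Nanobodies came from a synthetic yeast display library in Saccharomyces cerevisiae BJ5465, induced with galactose for 36–48 hours and stained for 1 hour at 4 °C with 10% biotinylated, detergent-solubilized Sf9 membrane reagent. Cells were enriched on streptavidin microbeads and then FACS-sorted, with low and high (top ~1%) gates set on anti-HA fluorescence for expression and streptavidin fluorescence for reagent binding. Each polyreactivity label reflects the gate a clone came from. Genes were amplified by colony PCR, sequenced by MiSeq 2 × 250 and filtered by CDR length.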

Sequence | polyreactivity (PSR sort gate)
QVQLVESGGGLVQAGGSLRLSCAASGFIFQYNAMGWYRQAPGKERELVAAITSRGGSTYYADSVKGRFTISRDNAKNTVFLQMNSLKPEDTAVYYCATRRSYLADYWGQGTQVTVSS | high polyreactivity
QVQLVESGGGLVQAGGSLRLSCAASGFIFRANAMGLYREAPGKERELVATISRSGGSTSYADSVKGRFTISRDNAKNTVYLQMNSLKPEDTAVYYCNKRTPYLRPIRDYWGQGTQVTVSS | high polyreactivity
QVQLVESGGGLVQAGGSLRLSCAASGFIFRDNAMGWYRQAHGKERELVASIRSSGGRTYYADSVKGRFTISRDNAKNTVYLQMNSLKPEDTAVYYCARRWYPVTPYARMYYWGQGTQVTVSS | low polyreactivity
QVQLVESGGGLVQAGGSLRLSCAASGFIFRDNAMGWYRQAPGKERELVAAISKSGGRTYYADSVKGRFTISRDNAKNTVYLQMNCLKPEDTAVYYCAADAYHFGRMDYWGQGTQVTVSS | high polyreactivity
QVQLVESGGGLVQAGGSLRLSCAASGFIFRDYAMGWYRQAPGKEREFVAAITSRGGSTYYADSVKGRFTISRDNAKNTVYLQMNSLKPEDTAVYYCNRYWWAYGEYDYWGQGTQVTVSS | high polyreactivity
QVQLVESGGGLVQAGGSLRLSCAASGFIFRDYAMGWYRQAPGKERELVAAISWSSDSTYYADSVKWRFTISRDNAKNTVYLQMNSLKPEDTAVYYCAAKGLRGYWWGFDYWGQGTQVTVSS | low polyreactivity
QVQLVESGGGLVQAGGSLRLSCAASGFIFRFNAMGWYRQAPGKERELVAVIRWSSGSTYYADSVKGRFTISRDNAKNTVYLQMNSLKPEDTAVYYCAAYVVPAYYYWGQGTQVTVSS | low polyreactivity
QVQLVESGGGLVQAGGSLRLSCAASGFIFRGKAMGWYRQAPGKERELVAAISSRGGSTYYADSVKGRFTISRDNAKNSVYLQMNSLKPEDTAVYYCAAGSTSGYFRYYYWGQGTQVTVSS | high polyreactivity
QVQLVESGGGLVQAGGSLRLSCAASGFIFRINAMGWYRQAPGKERELVARITSGGSTYYADSVKGRFTISRDNAKNTVYLQMNSLKPEDTAVYYCAARVKYYGSQSRYYWGQVTQVTVSS | high polyreactivity
QVQLVESGGGLVQAGGSLRLSCAASGFIFRKNAMGWYRQAPGKERELVAANSQSGGSTYYADSVKGRFTISRDNAKNTVYLQMNSLKPEDTAVYYCAARYDLPNWVGGREYNYWGQGTQVTVSS | high polyreactivity
QVQLVESGGGLVQAGGSLRLSCAASGFIFRKYAMGWFRQAPGKERELVAAISRGGGSTYYADSVKGRFTISRDNAKNTVYLQMNSLKPEDTAVYYCAVGIVQRDSRYYYWGQGTQVTVSS | high polyreactivity
QVQLVESGGGLVQAGGSLRLSCAASGFIFRLYTMGLYRQAPGKERELVARITRGDSTNYADSVKGRFTISRDNAQNTVYLQMNCLYPEDTAVYYCAKLHRGLPYYSFYRGYYYWGQVTQVTVSS | low polyreactivity
QVQLVESGGGLVQAGGSLRLSCAASGFIFRNYAMGWYRQAPGKERELVAAITRSGTSTYYADSVKGRFTISRDNAKNTVYLQMNSLKPEDTAVYYCAARAWSSRRRLMYYWGQGTQVTVSS | high polyreactivity
QVQLVESGGGLVQAGGSLRLSCAASGFIFRPYAMGWYRQAPGKERELVAAISFSGGSTYYADSVKGRFTISRDNAKNTVYLQMNSLIPEDTAVYYCAAVYYFSYWLGPDDYWGQGTQVTVSS | low polyreactivity
QVQLVESGGGLVQAGGSLRLSCAASGFIFRPYAMGWYRQAPGKERELVATIRWGASSTHYADSVKGRFTISRDNAKNTVYLQMNSLKPEDTAVYDCNADGWYGAVYWWFYGFDYWGQGTQVTVSS | low polyreactivity
QVQLVESGGGLVQAGGSLRLSCAASGFIFRQYAMGWYIQAPGKERELVAAITWSGTRTYYADSVKGRFTISRDNAKNTVYLQMNSLKPEDTAVYYCNAGYPKYGYDYWGQGTQVTVSS | high polyreactivity
QVQLVESGGGLVQAGGSLRLSCAASGFIFRQYAMGWYRQAPGKERELVAAISTGGGRTYYADSVKGRFTISRDNAKNTVYLQMNSLKPEDTAVYYCAVYYYKTYDYWGQGTQVTVSS | high polyreactivity
QVQLVESGGGLVQAGGSLRLSCAASGFIFRRYAMGWYRQAPGKERELVAAITRSGGSTYYADSVKGRFTISRDNAMNTVYLQMNSLKPEDTAVYYCNARYARVVPRYYYWGQGTQVTVSS | high polyreactivity
QVQLVESGGGLVQAGGSLRLSCAASGFIFRRYTMGWYRQAPGKERELVATITRSVNTDYADSVKGRFTISRDNAKNTVYLHMNSLKPEDTAVYYCAARKYFYFPVAYDYWGQGTQVTVSS | high polyreactivity
QVQLVESGGGLVQAGGSLRLSCAASGFIFRSNAMGWYRQAPGKEREFVAAISSRGGSTTYADSVKGRFTISRDNAKNSVYLQMNSLKPEDTAVYYCARDWYYYPQYRQRYYYWGQGTQVTVSS | high polyreactivity
QVQLVESGGGLVQAGGSLRLSCAASGFIFRSNAMGWYRQAPGKERELVAAISGRGCSTYYADSVKGRFTISRDNAKNTVYLQMNSLKPVDTAVYYCAKSTVWVLYGYWGQGTQVTVSS | high polyreactivity
QVQLVESGGGLVQAGGSLRLSCAASGFIFRSNAMGWYRQAPWKEREFVAAITYSSGSTYYRNSVKGRFTISRDNAKNTVYLQMNSLKPEDTAVYYCATPVTNGFDYWGQGTQVTVSS | high polyreactivity

Sequence | polyreactivity (PSR sort gate)
QVQLVESGGGLVQAGGSLRLSCAASGFIFRSYAMGWYRQAPGKERELVAAISRSGGSTYYADSVKGRFTISRDNAKNTVYLQMNSLKPEDTAVYYCATDGGRSTARGYGHWGQGTQVTVSS | high polyreactivity
QVQLVESGGGLVQAGGSLRLSCAASGFIFRSYAMGWYRQAPGKERELVAVISRRGVNTHYADSVKGRFTISRDNAKNTVYLQMNSLKPEDTAVYYCAKGLTALGDYWGQGTQVTVSS | high polyreactivity
QVQLVESGGGLVQAGGSLRLSCAASGFIFRTYAMGWYRQAPGKERELVAAITYSAGSTYYADSVKGRFTISRDNAKNTVYLQMNSLKPEDTAVYYCNVRKTWYGYSVTGRYDYWGQGTQVTVSS | low polyreactivity
QVQLVESGGGLVQAGGSLRLSCAASGFIFRWNAMGWYRQSPGKERELVATISNGGSTYYADSVKGRFTISRDNAKNSVYLQMNSLKPEDTAVYYCAADYWYFSISITDYDYWGQGTQVTVSS | high polyreactivity
QVQLVESGGGLVQAGGSLRLSCAASGFIFRWYAMGWYRQAPGKERELVAAISRSGDSTYYADSVKGRFTISRDNAKNTVYLQKNSLKPEDTAVYYCAADDRYYTYGYDYWGQGTQVTVSS | low polyreactivity
QVQLVESGGGLVQAGGSLRLSCAASGFIFRWYAMGWYRQAPGKERELVAAISSSSGSTYYADSVKGRFTISRDNAKNTVYLQMNSLKPEDTAVYYCAAESNRRFEGEYWGQGTQVTVSS | high polyreactivity
QVQLVESGGGLVQAGGSLRLSCAASGFIFRWYAMGWYRQAPGKERELVAGISASGGSTYYADSVKGRFTISRDNAKNTVYLQMNSLKPEDTAVYYCAAYRRNSRWELDYWGQGTQVTVSS | high polyreactivity
QVQLVESGGGLVQAGGSLRLSCAASGFIFRYNTMGWYRQAPGKERELVATINRSGGSTYYADSVKGRFTISRDNAKNTVYLQMNSLKPEDTAVYYCAARSGTRWRSGYYYWGQGTHVTVSS | high polyreactivity
QVQLVESGGGLVQAGGSLRLSCAASGFIFRYYALGWYRQAPGKERELVAAIDYSGGSTNYADSVKGRFTISRDNAKNTVYLQMNSLKPEDNAVYYCNAEYTWHRGYDYWGQGTQVTVSS | low polyreactivity
QVQLVESGGGLVQAGGSLRLSCAASGFIFRYYAMGWYIQAPGKERELVATITRSGGSTYYADSVKGRFTLSRDNAKNTVYLQMNSLKPEDTAVYYCAADIYWYRGYGYWGQRTQVTVSS | high polyreactivity
QVQLVESGGGLVQAGGSLRLSCAASGFIFRYYAMGWYRPAPGKERELVAAISASGGSTYYADSVKGRCTISRDNAKNSDYLLMNSLKPEDTAVYYCATYYQKYRSEYWGQGTQVTVSS | high polyreactivity
QVQLVESGGGLVQAGGSLRLSCAASGFIFRYYAMGWYRQAPGKERELVAAISASGVSTYYADSVKGRFTISRDNAKNTVYLQMNSLKPEDTAVYYCNKVTRGGYDYWGQGSQVTVSS | high polyreactivity
QVQLVESGGGLVQAGGSLRLSCAASGFIFRYYAMGWYRQAPGKERELVAAISSGGRTSYADSVKGRFTISRDNAKNTVYLQMNSLKPEDTAVYYCAADRWRGLFYYGKDYWGQGTQVTVSS | high polyreactivity
QVQLVESGGGLVQAGGSLRLSCAASGFIFRYYAMGWYRQAPGKERELVAAISWSGGSTNYADSVKGRFTISRDNAKNTVYLQMNSLKPEDTAVYYCATRYRRWSTVVQDDYWGQGTQVTVSS | low polyreactivity
QVQLVESGGGLVQAGGSLRLSCAASGFIFRYYAMGWYRQAPGKERELVAAITKSGGRTFYADSVKGRFTISRDNAKNTVYLQMNSLKPEDTAVYYCAARANGRDDYWGQGTQVTVSS | high polyreactivity
QVQLVESGGGLVQAGGSLRLSCAASGFIFRYYAMGWYRQAPGKERELVARISSSGGRTYYADSVKGRFTISRDNAKNTVYLQMNSLKPEDTAVYYCNTADYHGRWAFAWYGDYWGQGTQVTVSS | high polyreactivity
QVQLVESGGGLVQAGGSLRLSCAASGFIFRYYAMGWYRQAPGKERELVASIDWSGGNTYYADSVKGRFTISRDNAKNTVYLQMNSLKPEDTAVYYCNRRGMDWGQVTQVTVSS | low polyreactivity
QVQLVESGGGLVQAGGSLRLSCAASGFIFRYYAMGWYRQAPGKERELVATISASGGRTYYADSVKGRFTISRDNAKNTVYLQMNSLKPEDTAVYYCAVRPYWLGTYAPVAFDYWGQGTQVTVSS | high polyreactivity
QVQLVESGGGLVQAGGSLRLSCAASGFIFRYYAMGWYRQAPGKERELVATISYRGASTYYADSVKGRFTISRDNAKNTVYLQMNSLKPEDTAVYYCAADWGWYWYIYDYWGQGTQVTVSS | low polyreactivity
QVQLVESGGGLVQAGGSLRLSCAASGFIFRYYAMGWYRQAPGKEREMVAAISRSGGSTYYADSVKGRFTISRDNANNTVYLQMKSLKPEDTAVYYCAALQSRSWYQFNYWGQGTQVTVSS | high polyreactivity
QVQLVESGGGLVQAGGSLRLSCAASGFIFSAYAMGWYRQAPGKERELVAAITKRGGTTYYADSVKGRFTISRDNAKNTVYLQMNSLKPEDTAVYYCATRQLSKVKDMDYWGQGTQVTVSS | high polyreactivity

From the nanobody polyreactivity screen of Harvey et al. (2022)
